EP4559472A1

Molecular target: Biotinylated C4b (UniProt P0C0L4)
Assay: SPR, biotinylated C4b on streptavidin chip, 1:1 steady-state affinity model

Kd: 2900 nM
B1: C4BP(1-4) (protein)
chain: AGNCGPPPTLSFAAPMDITLTETRFKTGTTLKYTCLPGYVRSHSTQTLTCNSDGEWVYNTFCIYKRCRHPGELRNGQVEIKTDLSFGSQIEFSCSEGFFLIGSTTSRCEVQDRGVGWSHPLPQCEIVKCKPPPDIRNGRHSGEENFYAYGFSVTYSCDPRFSLLGHASISCTVENETIGVWRPSPPTCEKITCRKPDVSHGEMVSGFGPIYNYKDTIVFKCQKGFVLRGSSVIHCDADSKWNPSPPACEP
